Measurements reported in paper PMC13013481.

Target: RSV G central conserved cysteine-rich region peptide (Gpep, residues 149-196) (respiratory syncytial virus strain A2)
Assay: Tricine SDS-PAGE, non-reducing and reducing; 16% Tricine SDS-PAGE of concentrated Gpep, with or without β-mercaptoethanol and with or without heat denaturation

Q: “RSV G central conserved cysteine-rich region peptide (Gpep, residues 149-196)” was tested. Which stoichiometry N did it give?
A: 2
